According to the nanobody polyreactivity screen of Harvey et al. (2022):

Experiment: yeast display, Sf9 membrane polyspecificity reagent, FACS + sequencing; frameworks hold sequencing errors
How it was run: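 In a synthetic yeast display library (Saccharomyces cerevisiae BJ5465), nanobody expression was induced with galactose for 36–48 hours. FACS gates were set low and high (top ~1%) using anti-HA fluorescence for expression and streptavidin fluorescence for binding of the Sf9 membrane reagent. Each polyreactivity label is drawn from the gate of origin.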

Row | Sequence | polyreactivity (PSR sort gate)
1 | QVQLVESGGGLVQAGGSLRLSCAASGSTFSGNAMGWYRQAPGKEMEMVAAISGRGGSTYYADSVKGRFTISRDNAKNTVFLQMKSLKPEDTAVYYCAKRRNTRGAYGYWGQGTQVTVSS | high polyreactivity
2 | QVQLVESGGGLVQAGGSLRLSCADSGRIFHYNAMGWYRQAPRKERELVAAISTGGSTNYADSVKGRFTISRDNAKNTVYLQMNSLNPEDTAVYYCAADHPVTYPTSKFDYCGQGTQVTVSS | low polyreactivity
3 | QVQLVESGGGLVQAGGSLRLSCAASGRTFYDYDMGWYRKAPGKERELVAAISGGDSTYYADSVKGRFTISRDNAKNTVFLQMNSLKPEDTAVYYCAVTPRGLPYGAYLLYYWGQGTQVTVSS | low polyreactivity
4 | QVQLVESGGGLVQAGGRLRISCAASGRTFYRYAMGWYRQAPGKERELVAAITYSGGSTNYADSVKGRFTISRDYAKNTVYLQMNSLKPEDTAVYYCATRYNVVRWPYYYWGQGTQVNVSS | high polyreactivity
5 | QVQLVESGGGLVQAGGSLRLSCAASGSIFGGYAMGWYRQAPGKERELVATSYADSVKGRFTISRDNAKNTVYLQMNSLKPEDTAVYYCAADPPLEGGHGYNYWGQGTQVTVSS | low polyreactivity
6 | QVQLVESGGGLVQAGGSLRLSCAASGSNFDNAKGWYRQAPGKERELVAAITSGGITNYADSVKGRFTNSRDNAKKTVYLQMNSQKPEDTAVYYCNTMSPTQTKYDYWGQGTQVTVSS | low polyreactivity
7 | QVQLEESGGGLVQAGRSLRLISAASGRMFGWNAMGWYRQAPWKERELVASIRSGGRTNYADSVKGRFTISRDNAKNTVYLQMNSLKPEDTAVYYCAVGPYYQSTQIYDYWGQGTQVTVSS | low polyreactivity
8 | QVQLVESGGGLVQAGGSLRLSCAASGSIFSSYAMGWYRQAPGKEREFVAAISWGGGSTYYADSVKGRFTISRDNAKNSVYLQMNSLKPEDTAVYYCAVETWLYPYDYWGQGTQVTVSS | high polyreactivity
9 | QVQLVESCGGLVQAGGSLRLSCADSGRTIYVNAMGCYRQAPGKERELVARITSGGSTYYADSVKGRFTISRDNAKNTVYLQMNSLTPEDTAVLYCAKKYIGYQDWIHSTRRYDYWGQGTQVTVSS | low polyreactivity
10 | QVQLVESGGGLVQAGGSLRLSCAAYGFTFGVYALGWYRQAPGKERELVAAISRIGGRTYYADSLKGRYTISRDNAKNTVYVQMNSLKPEDTAVYYCAESPRQGMYYWGQGTQVTVSS | high polyreactivity
11 | QVQHVESGGGIVQAGGSLRLSCAASGSTFSGYAMGWYRQAPGKERELVASISSGGRTTYADSVKGRFTISRDNAKNTVYLQMNSLKPEDTAVSYCAKRIRPGYARLYSWGQGTQVTVSS | high polyreactivity
12 | QVQLVESGGGVVQAGGSLRLSCAASGRIFRYNAMGWYRQAPGKEREVVAGISFSGGSTYYADSVKGRFTISRDNAKNTVYLQMNSLKPEDTAVYYCNAYGRYSYPTFDYWGQGTQVTVSS | high polyreactivity
13 | QVQLVETGGGLVQAGGSLRLSCAASGITFYYYAMGWYRQAPGKERELVAAINSGGITNYADSVKGRFTLSRDIAKKTVYLQMNSLKPEDTAVYYCAASSGFRYRYGYWGQGTQVTVSS | high polyreactivity
14 | QDQLVESGGGLVQAGGSLRLSCAASGGNFPPYDMGWYRQAPGKERDLVATISSDSTNYADSVKGRFTISRDNAKNTVYLQMNSLKPEDSAVYYCAVRFYWAPGGGEYDYWGQGTQVTVSS | low polyreactivity
15 | QVQLEESGGGLVQAGGSLRLSCAASGSIFYVYAIGSYRQAPRKERELVAAISQSGGNTYYADSVKGRFTISRDNAKNTVYLQMNSLKPEDTAVYYCNAVYYYYAGNYWGQGTQVTVSS | high polyreactivity
16 | QVQLVESGGGIVQAGGSLRLSCAASGFTFWSYAMGWYRPAPGKERELVAAISRGGSTSYADSVKGRFTISRDNAKNTVYLQLNSLKPEDTAVYYCAVVRARAYVYHGFYWGQGTQVTVSS | high polyreactivity
17 | QDQLQESGGGLVQAGGSLRLSCAASGSISYPRTMGWYRQAPGKEREFVAGIGVGGTTYYADSVKGRFTISRDNAKNTVYLQMKSLKPEDAAVYYCAVAAYYDKYYVYWGQGTQVTVSC | low polyreactivity
18 | QVQLVESGGGLVQAGGSLRLSCAASGSIQYYAMGWYRHAPGKERELVAAIRFSGGRTYYADSVKGRFTISRDNAKITVYLQMHSLKPEHTAVYYCAAYRSPRRSGAPSQGKFDYCGQGTQVTVSS | low polyreactivity
19 | QVQLVESGGGLVQAGGSLRLSCAASGSTLASYAMGWYSQAPGKERELVAVIDSGGSTYYADSVKGRFTISRDNAKNSVYVQMNSLKPEDTAVYDCAAGWEFSGVLTLFGYWGQGTQVTVSS | low polyreactivity
20 | QVQLVESGRGLVQAGGSLRLSCAASGSIFTPNVMGWYIQAPGKERELVAAISQSGGSTFYADSVKGRFTISRDNAKNTVYLQLNSLKPEDTAVYYCATEYDGPVYDLDYDYWGQGTLVTVSS | low polyreactivity
21 | QVQLVESGGGLVQAGGSLRLSCAASGFTFRSNAMGWYRQAPGKERELVAAISYSGDSTYYADSVKGRFTISRDNAKNTVYLQMNSLKPEDTAVYYCNAVGSGYRSWYDYWGQGTQVTVSS | high polyreactivity
22 | QVQLVESGGGLVQAGGSLRLSCAASGNTFYFNAMGWYRQAPGKERELVAAITSGGNTNYADSVKGRFTISRDHAKNTFNLQMNSLKPEDSAVYYCNVPRFSPIRNYDYWGQGTQVTVSS | high polyreactivity

Row | Sequence | polyreactivity (PSR sort gate)
23 | QVQLVESGGVLVQAGGSLRLSCAASGRIFWGYAMGWYRQAPGKERELVARLTSGGDTYYADSVKGRFTISRDNAKNTVDLQMNSLKPEDTAVYYCAKSTAVKPYAYRESGFIYDYRGQGTQVTVSS | low polyreactivity
24 | QVQLVESGGGLVQAGGSLRLSCAASGSTFGEYPMGWYRQAPGKEREFVAAITFSDDSTYYADSVKGRFTISRDNAKNTVYLQMNSLKPEDTAVYYCAAVLSRHYDYWGQGTQVTVSS | high polyreactivity
25 | QVQLVESGGGLVQAGGSLRLSCAASGSTFAYNAMGWYRQAPGKERELVATMSYSGGTTDYADSVKGRFTISRDNAKNTVYLQMNSLKPEDTAVYYCNADHLTWGGWGIRKYDYWGQGTQVTVSS | high polyreactivity
26 | QVQLVESGGGLVQAGGSLRLSCAASGSTFFRYAMGLYRQAPGKEREFVAAITSSGGNTYYADSVKGRFTISRDNAKNTVYLQMNSLKPEDTAVYYCAAVWYSPYVKYNYWGQGTQVTVSS | low polyreactivity
27 | QVQLVESGGGLVQAGGSVRLSCAASGSTSAYAMGWYRQAPGKEREFVAAIRFSAGSTYYADSVKGRFTISRDNAKNTVYLQMNSLKPEDTAVYYCAASYSVIFGYFPDYYWVVEYDYWGQGTQVTVSS | high polyreactivity
28 | QVQLVESGGGLVQAGGSLRLSCAASGFTFKYYAMGWYRQAPGKERELVADITRSGGSTYYADSVKGRFTISRDTAKITVYLQMNSLKPEDTAVYYCAVDPVRYPYSYDYWGQGTQVTVSS | high polyreactivity
29 | QVQLVESGGGLVQAGGSLRLSCAASGSTFSGYAMGWYRQAPGKERELVAAISWSGGRTYYADSVKGRFTISRDNAKNTVYLQMNSLKPEDTAVYYCAAVRKSAYEYWGQGTQVTVSS | high polyreactivity
30 | QVQLVESAGVLVQAGGSLRLSCAACGSIFDYYALGWYRQAPGKERELVDTISGGGGTTYYADSVKGRFTISRDNAKNTVYLIMNSLKPEDTAVYYCAADSLGYNYWGQGTQVTVSS | low polyreactivity
31 | QVQLVESGGGLVQAGGSLRLSCAASGRIFRYYAMGWYRQAPGKERELVAAISSRGGSTYYADSVKGRFTISRDNAKNSVYLQMNSLKPEDTAVYFCDKAVFYGPSERNYGLDYWGQGTQVTVSS | high polyreactivity
32 | QVQLVVSGGGLVQAGGSLRLSCAASGGTFQHNTMGWYRQAPGKERELVAAIRWSDGSTYYADSVKGRFTISRDNAKTTVYLQMNSLKPEDTSVYYCNRAYTASYIPRVGFWGQGTQVTVSS | high polyreactivity
33 | QVQLVESAGCLVQAGGSLRLSCAASGSIISAYARGWYRQAPGKERQLVAAITRSGGSTYYADSVKGRFTISRDYAKITVYLQMNSLKPEDTAVYYCAARSYVHVFVRMYYWGQGTQVTVSS | high polyreactivity
34 | QVQLVESAGGLVQAGGSLRLSCAASGIIFDTNAMGCYRQAPGKERELVASISKRGGSTYYADSVKGRFTISRDNAKNTVYLQMNSLKPEDTAVYYCNALRRRQYHDDYWGQGTQVTVSS | high polyreactivity
35 | QVHLVESGGGLVQAGGSLRLTCAASGFTFHQYAMGWYRQAPGKERELVAAISQSGDSTYYADSVKGRFTISRDNSKNTVYLQMNSLKQEYTAVYYFNADNDGVVWSDPFDFDYWGQGTQVTVSS | low polyreactivity
36 | QVKLVESGGGLVQAGGSLRLSCAASGRIFSGYAMGWYIQAPGKESEFVAAITWNGVSTYYADSVKVRFTISRDNAKNTVYLLMNSLKPEDTAVYYCAKDYVYYPSYRGSVNYWGQGTQVTVSS | low polyreactivity
37 | QVQLVESGGGLVQAGGSLRLSCASSGGIFYRNAMGWYRQAPGKERELVAVITSSGGSTYYADSVKGRFTISRDNAKNTVYLQMNSLKPVDTAVYYCAAESVAAYYWGQGTQVTVSS | high polyreactivity
38 | QVQLVESGGGLVQAGGSLRLSCAASGRTFWKYAMGWYRQAPGKERELVAAITSSGGSTYYADSVKGRFTISRDNAKNTVYLQMNSLKPEDTAVYYCAAPGWGLGYNYWGQGTQVTVSS | low polyreactivity
39 | QVQLVESGGGLVQAGGSLRLSCAASGFTFSWYAMGWYRQAPGKERELVAAISSAGNTNYADSVKGRFTISRDNAKNTVYLQMNSLKPEDTAVYYCAKRDYWGQGTQVTVSS | high polyreactivity
40 | QVQLVESGGGLVQAGGSLRLSCAASGSTFRYNAMGWYRQAPGKERELVAAISSGSSTNYADSVKGRFTISRDNEKNTVYFQMNSLKPVDTAVYYCAAQPGYYDDFYYWGQGTQVTVSA | low polyreactivity
41 | QVQLVESGGGLVQAGGSLRLSCAASGLTFIKYAMGWYRQAPGKERELVADITSSGGTTYYADSVKGRFTISRDNAKNTVYLQMNSLKPEDTAVYYCAAGTRTGMNWGQGTQVTVSS | high polyreactivity
42 | QVQLVESGGGLVQAGGSLRLSCAASGFILEGYAMGWYRQAPGKERELVAAITRRGTRTYYADSVKGRFTISRDNAKNTVYLQMNSLKPEDTAVFYCNAESRSTWVAGYDYWGQGTQVTVSS | high polyreactivity
43 | QVQLVESGGGLVQAGGSLRLSCAASGIIFQRNDMGWYRQAPGKEREFVAAITYIGGSTYYADSVKGRFTISRDNAKNTVYLQMNSLKPEDTAVYWGQGTQVTVSS | low polyreactivity
